Consider 1 substance from paper PMC4626089, “In Vitro Mutational Analysis of the β2 Adrenergic Receptor, an In Vivo Surrogate Odorant Receptor” (PLoS ONE, 2015).

This data set is described as follows: GFP-labeled filopodia count per OP6 cell. The settings on record: glycan lost; control: WT mβ2AR::GFP.

On to “mouse β2-adrenergic-receptor (mβ2AR): No-NxS”, for which the “localisation_or_trafficking, other: GFP-labeled filopodia per cell” value was “no change, 13.6 ±8.3 vs 31.8 ±16.2”.
